Series [1] has as its system MS2 coat protein. In words: apparent KD of MS2 coat protein; designed switch direction (-1 OFF switch, 1 ON switch): -1; higher = weaker reporter binding. The note with it: Eterna round: R98. Here is the method:
(§1)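 RNA-MaP: designed FMN/MS2 RNA switches (84 nt design region) are transcribed on-chip within common flanks and titrated with SNAP-549-labelled MS2 coat protein (about 1-3000 nM) in 100 mM Tris pH 7.5, 80 mM KCl, 4 mM MgCl2, without or with 200 uM FMN. Median apparent KD per design; activation ratio = KD,OFF / KD,ON.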

Series [2] has as its system MS2 coat protein. Description: apparent KD of MS2 coat protein; designed switch direction (-1 OFF switch, 1 ON switch): 1; higher = weaker reporter binding. To be noted: Eterna round: R98. Here is the method: as §1

We go through 21 sequences from the supplement of paper PMC9170038.

Take “AACCUGACAUAAUAAUGUAGAAAUACAUGAGGAUCACCCAUGUAGGAUAUGCAGUGGAAUACACUGCAGAAGGACAUAGUCAGG [Exclusion NG 3/8-B1]”: the figures for the “apparent KD of MS2 coat protein” value in series [1] (input ligand: FMN 200 uM) and in series [1] (input ligand: none) were 0.0219 µM and 0.0148 µM, respectively.
Take “GCUCUCACUUGAGGAUAUCGAGUGGAUAACACUCGAGAAGGCAGGGAAACCUGAGGAUCACCCAGGUAACUGGAAAGAGAGCAA [Same State NG1 - A3C, U17G Submission 5D]”: the “apparent KD of MS2 coat protein” value in series [2] (input ligand: FMN 200 uM) was 0.0204 µM; in series [2] (input ligand: none), 0.0318 µM.
For “UUAUGAGCGAUAGGAUAUACUGAGAUUGAAUGGGUAGAAGGAUCAAUCGUGUGGAAGACAUGAGGAUCACCCAUGUUACGGGCC [SameState #75 NG1]”, in that order: 0.51 µM and 0.221 µM.
As for “ACAUAAUGGUGAGGAUAUGCACAGGAUCACCGUGUAGAAGGCAUCAGGUAGAAGGUGCAGAGGAUCACCCUGUAAGGAUAUAUC [pwkr2 ssNG1 DX.19]”, the entries for the “apparent KD of MS2 coat protein” value in series [2] (input ligand: FMN 200 uM) and in series [2] (input ligand: none) were 0.0946 µM and 0.562 µM, respectively.
With “UGUAAAAUUGAUCCUGCAAGUACAUGAGGAUCACCCAUGUGCUAGGAUAUCGCUCAGCUAAAGACCGAGAAGGAGCACAAUGUA [Adiraat]”, the “apparent KD of MS2 coat protein” value was 0.0671 µM in series [1] (input ligand: FMN 200 uM) and 0.0279 µM in series [1] (input ligand: none).
For “ACAUGGAAGCGAGGAUAUGCGGCGGAUUUAAACGCAGAAGGCGUUUAUUUAACUCGCAAUAACAUGAGGAUCACCCAUGUAUAA [AK-NGROCr2-ExNG1-5.1]”, the “apparent KD of MS2 coat protein” value in series [1] (input ligand: FMN 200 uM) turned out to be 0.0594 µM; in series [1] (input ligand: none), 0.0559 µM.
Take “CUGGUGAUGUAAGGAUAUGCUGAGGAUAACUCAGCAGAAGGUACAUGAGGAUCACCCAUGUAAAUGAAAGAUAAUAAACACCAG [Excusion NG 1/16-B2]”: the “apparent KD of MS2 coat protein” value in series [1] (input ligand: FMN 200 uM) is 0.0309 µM; in series [1] (input ligand: none), 0.0159 µM.
Regarding “GCAGAAGGUGCGGAGGAUCACCCUGUAAGGAUAUGCAUUAGCAAGGAUAUACAGAGGAUCACCCUGUAGAAGGUGCACUUCUGC [pwkr2 ssNG3 DX.9]”, the “apparent KD of MS2 coat protein” value in series [2] (input ligand: FMN 200 uM) was 1.31 µM; in series [2] (input ligand: none), 0.897 µM.
Consider “GCAGAAGGUGCGGAGGAUCACCCUGUAAGGAUAUGCAUUAGCAAGGAUAUACAGAGGAUCACCCUGUAGAAGGUGCACUACUCU [pwkr2 ssNG3 DX.1]”, for which the “apparent KD of MS2 coat protein” value in series [2] (input ligand: FMN 200 uM) was found to be 1.14 µM; in series [2] (input ligand: none), 1.43 µM.
Take “GGAUAACAUGUAGGAUAUCCAGCAUUGACCAUCGGAGAAGGACAUGAGGAUCACCCAUGUACCGAUACAAUGGAAUAAGGGAAU [xclu_NG1_cac3]”: the “apparent KD of MS2 coat protein” value came to 0.0179 µM in series [1] (input ligand: FMN 200 uM) and 0.0154 µM in series [1] (input ligand: none).
Take “GGAGCACACAUUAACAUGAGGAUCACCCAUGUCAAAAGACAUGAGGAUAUGGAUCCGAAAAGGAUCCAGAAGGCAUGGUGCUCC [EliMod 8 - Jieux - Same State NG 3]”: the “apparent KD of MS2 coat protein” value in series [2] (input ligand: FMN 200 uM) stood at 0.0351 µM; in series [2] (input ligand: none) it was 0.598 µM.
In the case of “GCUUGCGACGCAGGAUAUGGGUGCCUGCACACGAGGAUCACCCGUGUAGAGGAACGGAUUACGUCUCAGAAGGGCGUGGCAGGC [United States 4 - Jieux - Same State NG 2]”, the “apparent KD of MS2 coat protein” value in series [2] (input ligand: FMN 200 uM) came out at 0.0218 µM; in series [2] (input ligand: none), 0.0889 µM.
Consider “GGUUGUUACGCAGGAUAUUGCCAACAGGCAGUGGGAUAUCCGAAAGGAGAAGGUUCGCCAACAGGCGAGAAGGGCGGGUUAACC [pwkr exNG2 2xF7 2FMN.10.7]”, for which the “apparent KD of MS2 coat protein” value turned out to be 0.094 µM in series [1] (input ligand: FMN 200 uM) and 0.4 µM in series [1] (input ligand: none).
For “AAGUUUUUACAAGGAUAUCAGUUGUUUAUAAAUUAAACAUGAGGAUCACCCAUGUAACAAAGGAGUGAGAAGGUGUGUUGGAAA [JR_SSNG2_Sub089]”, the “apparent KD of MS2 coat protein” value in series [2] (input ligand: FMN 200 uM) amounted to 0.319 µM; in series [2] (input ligand: none), 0.408 µM.
For the sequence “GAUACAUAGCAAGGAUAUCCACAUGAGGAUCACCCAUGUGCGUAAUCUGGGCGGUGGAAGAAAGUGGAGAAGGUGUUAGGUUGA [Atia]”, the “apparent KD of MS2 coat protein” value in series [1] (input ligand: FMN 200 uM) stood at 0.106 µM; in series [1] (input ligand: none), 0.0642 µM.
Take “GGAGACCUCACAGGAUAUGCUGGACUUUGUCCAGCAGAAGGGUGACUAACAUGAGGAUCACCCAUGUAGGUCUCCAAAUUUAAU [Denovo 58]”: the “apparent KD of MS2 coat protein” value was determined as 0.631 µM in series [2] (input ligand: FMN 200 uM) and 0.0408 µM in series [2] (input ligand: none).
On to “GCGUCCCGCAGAGGAUAUGUUGUUCGGCCUACAUGAGGAUCACCCAUGUCAAAGGGCUGAUCCCAACAGAAGGCUGAAGGAUAC [Qumarera]”, for which the “apparent KD of MS2 coat protein” value in series [2] (input ligand: FMN 200 uM) worked out at 0.00873 µM; in series [2] (input ligand: none), 0.064 µM.
Take “UAAUAAUAAUAAUACGUCAAUUACAUGAGGAUCACCCAUGUAUAGGAUAUGCAGUGGAAUACACUGCAGAAGGAUACAAAGACG [Exclusion NG 3/3-B1]”: the “apparent KD of MS2 coat protein” value was determined as 0.0228 µM in series [1] (input ligand: FMN 200 uM) and 0.0196 µM in series [1] (input ligand: none).
On to “CCUGACACUUGAGGAUAUGCUCAGGAAUACUGAGCAGAAGGCAGGAAAACCUGAGGAUCACCCAGGUAAGUCAGGAAUAAUAAA [Same State NG1 - A3C, U17G Submission 3A]”, for which the “apparent KD of MS2 coat protein” value in series [2] (input ligand: FMN 200 uM) was 0.0172 µM; in series [2] (input ligand: none), 0.0207 µM.
On to “GAGCUGCUCUGAGGAUAUGGGUUUAUAAGGACGGGCACGCCCGACAUGAGGAUCACCCAUGUCUACCAGAAGGCAGAAAAGUUC [Mamain]”, for which the “apparent KD of MS2 coat protein” value in series [2] (input ligand: FMN 200 uM) was found to be 0.394 µM; in series [2] (input ligand: none), 0.171 µM.
With “UUGGUUCUCGUAGGAUAUGUAGGAUAUGCCUACAUGAGGAUCACCCAUGUUCGCAUGGCAGAAGGACAGAAGGACGAUCACCAU [pwkr ssNG2 2FMN +1F5.17]”, the results for the “apparent KD of MS2 coat protein” value in series [2] (input ligand: FMN 200 uM) and in series [2] (input ligand: none) were 0.0208 µM and 0.288 µM, respectively.
